The values below come from patent publication US20070027086A1 (ACTION PHARMA A S, published 2007).

The target of assay [1] is T1, native mouse MC1-receptor (MSH-receptor of mouse B16 melanoma cells and of mouse RAW 264.7 cells) (mouse, UniProt Q01727 1-315).
T1 construct: whole, on cells; also called B16 melanoma cell MSH-receptor
In words: competition with 0.2 nM [^125I]NDP-MSH on mouse B16-F1 melanoma cells (native mouse MC1 receptor). Here is the method:
Assays for MSH-receptor binding was done essentially as described (Xia et al., Cancer Letters, 1996, 98, 157-162), in principle according to earlier described methods (Eberle et al., J. Recept. Res. 1991, 11, 311-322). In brief, collected cells were washed with binding buffer (for composition of binding buffer see below) distributed into 96 well plates and sedimented onto the well bottoms by centrifugation. […] After incubation the plates were put on ice, centrifuged and the cells washed with 0.1 ml of ice-cold binding buffer, centrifuged and the binding buffer was sucked off. The finally sedimented and washed cells were then detached from the plates with 0.2 ml of 0.1 N NaOH. Radioactivity was counted by using a Wallac, Wizard automatic gamma counter. The competition data were analysed by law of massaction computer modelling essentially as described (Bergstrom & Wikberg, Acta Pharmacol. Toxicol. 1986, 59, 270-278).

For assay [2], the target named is T2, human MC1-receptor (melanocortin 1 receptor) (human, UniProt Q01726 1-317). In words: cell-based or functional assay.
T2 sequence (Q01726 whole entry): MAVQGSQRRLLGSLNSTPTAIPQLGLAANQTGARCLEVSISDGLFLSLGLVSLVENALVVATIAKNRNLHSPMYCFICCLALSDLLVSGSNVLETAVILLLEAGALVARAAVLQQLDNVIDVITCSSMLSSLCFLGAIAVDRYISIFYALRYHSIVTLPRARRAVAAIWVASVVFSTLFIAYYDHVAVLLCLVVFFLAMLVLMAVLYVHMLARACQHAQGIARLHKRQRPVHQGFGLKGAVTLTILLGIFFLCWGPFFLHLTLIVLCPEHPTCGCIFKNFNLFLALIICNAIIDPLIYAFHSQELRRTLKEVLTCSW
The target of the next assay is T3, human MC5-receptor (human, UniProt P33032 1-325).
T3 construct: whole, on cells
T3 sequence (P33032 whole entry): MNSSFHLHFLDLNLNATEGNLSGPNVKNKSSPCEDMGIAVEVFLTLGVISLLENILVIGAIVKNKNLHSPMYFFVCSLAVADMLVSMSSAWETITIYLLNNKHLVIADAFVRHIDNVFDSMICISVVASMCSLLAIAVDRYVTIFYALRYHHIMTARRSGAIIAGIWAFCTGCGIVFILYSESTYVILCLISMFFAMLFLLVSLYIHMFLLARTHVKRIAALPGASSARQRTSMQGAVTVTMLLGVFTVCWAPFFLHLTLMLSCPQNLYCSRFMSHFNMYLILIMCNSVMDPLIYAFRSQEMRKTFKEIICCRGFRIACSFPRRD
In words: competition with [^125I]NDP-MSH on COS cells expressing human MC5 receptor; Ki by Cheng-Prusoff. Here is the method:
(§1) Expression of receptor clones. Human MC1- and MC5-receptor DNAs (Chhajlani and Wikberg 1992; Chhajlani et al., 1993), cloned into the expression vector pRc/CMV (InVitrogen Corp., USA), and human MC3- and human MC4-receptor DNAs (Gantz et al., 1993a & b), cloned into the expression vector pCMV/neo, were used. COS cells were grown and transfected with receptor clones as described (Schiöbth et al. 1995, 1996b). After transfection cells were cultivated for 48 h, detached from the Petri dishes, and used for radioligand binding as described (Schiöth et al. 1995, 1996b).
(§2) Binding studies. […] The competition data were analyzed by fitting it to the logistic function using non-linear regression analysis. The Kᵢ-values were then calculated from the thus obtained IC50-values by using the Cheng and Prusoff equation, essentially as described by Schiöth et al. 1995, 1996b.

The target of another assay is T4, human MC4-receptor (human, UniProt P32245 1-332).
T4 construct: whole, on cells
T4 sequence (P32245 whole entry): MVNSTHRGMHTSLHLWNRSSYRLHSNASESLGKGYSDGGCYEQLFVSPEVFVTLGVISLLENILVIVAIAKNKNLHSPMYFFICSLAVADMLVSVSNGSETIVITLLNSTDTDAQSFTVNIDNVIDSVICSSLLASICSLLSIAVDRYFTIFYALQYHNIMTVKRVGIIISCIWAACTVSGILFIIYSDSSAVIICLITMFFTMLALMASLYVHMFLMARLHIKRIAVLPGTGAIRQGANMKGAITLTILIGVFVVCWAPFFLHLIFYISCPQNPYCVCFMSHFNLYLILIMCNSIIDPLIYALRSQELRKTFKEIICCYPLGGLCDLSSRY
In words: competition with [^125I]NDP-MSH on COS cells expressing human MC4 receptor; Ki by Cheng-Prusoff. Here is the method: as §1, §2

The target in assay [3] is T5, human MC3-receptor (human, UniProt P41968 1-323).
T5 construct: whole, on cells
T5 sequence (P41968 whole entry): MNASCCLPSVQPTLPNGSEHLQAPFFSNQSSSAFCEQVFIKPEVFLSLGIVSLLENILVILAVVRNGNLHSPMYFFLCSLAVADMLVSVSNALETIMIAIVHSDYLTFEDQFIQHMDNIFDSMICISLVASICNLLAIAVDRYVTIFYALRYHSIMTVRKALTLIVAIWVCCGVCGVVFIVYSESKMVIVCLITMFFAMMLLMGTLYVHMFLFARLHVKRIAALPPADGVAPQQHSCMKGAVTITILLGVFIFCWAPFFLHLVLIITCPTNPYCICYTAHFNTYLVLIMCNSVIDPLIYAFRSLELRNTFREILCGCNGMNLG
The experiment in a line: competition with [^125I]NDP-MSH on COS cells expressing human MC3 receptor; Ki by Cheng-Prusoff. Here is the method:
as §1, §2

In assay [4] the target is T2, human MC1-receptor (melanocortin 1 …). The experiment in a line: competition with [^125I]NDP-MSH on COS cells expressing human MC1 receptor; Ki by Cheng-Prusoff. Here is the method: as §1, §2
Assay [5] deals with T1, native mouse MC1-receptor (MSH-receptor …). In words: competition with 0.1 nM [^125I]NDP-MSH on mouse RAW 264.7 macrophage cells (native mouse MC1 receptor). Here is the method: MSH-receptor binding was done essentially as described (Xia et al., Cancer Letters, 1996, 98, 157-162), in principle according to earlier described methods (Eberle et al., J. Recept Res. 1991, 11, 311-322). In brief, the collected cells were washed, distributed into 96 well plates and sedimented onto the well bottoms by centrifugation. […] Radioactivity was counted by using a Wallac, Wizard automatic gamma counter. The competition data were analysed by law of massaction computer modelling essentially as described (Bergstrom & Wikberg, Acta Pharmacol. Toxicol. 1986, 59, 270278).

The target of assay [6] is T5, human MC3-receptor. The experiment in a line: ratio of Ki values, competition with [^125I]NDP-MSH on COS-1 cells expressing human MC receptors. Here is the method:
as §1, §2

Square brackets hold non-standard residues; d marks the D form. Ends that are not written are not given here.

T1 sequence (Q01727 whole entry): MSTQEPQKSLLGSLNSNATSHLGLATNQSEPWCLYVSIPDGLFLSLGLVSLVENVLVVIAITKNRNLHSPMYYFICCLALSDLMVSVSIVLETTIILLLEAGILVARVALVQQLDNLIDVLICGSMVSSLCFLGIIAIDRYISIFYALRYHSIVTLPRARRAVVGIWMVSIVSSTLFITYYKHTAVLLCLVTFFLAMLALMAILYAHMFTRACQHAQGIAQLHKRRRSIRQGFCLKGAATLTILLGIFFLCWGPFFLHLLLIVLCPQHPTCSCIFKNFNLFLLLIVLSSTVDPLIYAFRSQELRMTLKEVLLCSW

B1: MS09 (Ser-Ser-Ile-Ile-Ser-His-dPhe-Arg-Trp-Gly-Lys-Pro-Val-NH2) (peptide)
peptide: SSIISH[dF]RWGKPV-NH2
modifications: N-terminus assumed
SMILES: CC[C@H](C)[C@H](NC(=O)[C@H](CO)NC(=O)[C@@H](N)CO)C(=O)N[C@H](C(=O)N[C@@H](CO)C(=O)N[C@@H](Cc1c[nH]cn1)C(=O)N[C@H](Cc1ccccc1)C(=O)N[C@@H](CCCNC(=N)N)C(=O)N[C@@H](Cc1c[nH]c2ccccc12)C(=O)NCC(=O)N[C@@H](CCCCN)C(=O)N1CCC[C@H]1C(=O)N[C@H](C(N)=O)C(C)C)[C@@H](C)CC
notes: Synthetic 13-residue peptide amide; also called MSO9
Take B1: the Ki in assay [1] turned out to be 0.06 nM; in the assay with human MC5-receptor, 120 nM; with human MC4-receptor, 40 nM; with human MC3-receptor [3], 7 nM; in assay [4] it was 0.2 nM. The “% of 10 nM α-MSH (cAMP stimulation, 10 nM)” value in assay [2] came to 89%. For the same molecule, the “Fold stimulation of cAMP (10 nM)” value in assay [2] worked out at 5.5 fold. In addition, the “Fold stimulation of cAMP (1 µM)” value in assay [2] is 7 fold.

B2: MS05 (Ser-Ser-Ile-Ile-Ser-His-Phe-Arg-Trp-Gly-Lys-Pro-Val-NH2) (peptide)
peptide: SSIISHFRWGKPV-NH2
modifications: also: trifluoroacetate salt
notes: Synthetic 13-residue peptide amide, obtained as the trifluoroacetate salt; also called MSO5; compound (3)
On to B2, for which the inhibition constant (Ki) in assay [1] was found to be 1 nM; in assay [5], 1.35 nM; with human MC3-receptor [3], 1360 nM; in assay [4], 0.76 nM. Also, the “% of 10 nM α-MSH (cAMP stimulation, 10 nM)” value in assay [2] amounted to 69%. In addition, in assay [2], the “Fold stimulation of cAMP (10 nM)” value turned out to be 4.6 fold. Moreover, the “Fold stimulation of cAMP (1 µM)” value in assay [2] was 6.7 fold. For the same molecule, the “fold lower affinity than for the MC1-receptor” value in the assay with human MC3-receptor [6] was determined as 1800 fold.
